Source: patent publication US20100016547A1, “Glycosilated Peptide and Medicine Comprising It as an Effective Ingredient” (priority 2005, published 2010)

Legend:
[1] = target: GLP-1 receptor
[2] = target: GLP-1 receptor; remark: listed apart in the source

EX (peptide) showed an EC50 (cAMP assay) [1] of 0.55 nM and an IC50 [2] of 0.1 nM.
